Reference: patent publication US9289478B2, “Formulations of tumour-associated peptides binding to human leukocyte antigen (HLA) class I or class II molecules for vaccine” (IMMATICS BIOTECHNOLOGIES GMBH, priority 2008, dated 2016)

Legend:
[1] = HPLC-assay for stability of peptides in lyophilised formulation on storage for 3 months (Example 4); format: physicochemical; conditions: for stability of peptides in formulation, 1 M: 1 month; for stability of peptides in formulation, 2 M: 2 months; for stability of peptides in formulation, 3 M: 3 months
Protocol: (§1) Identity, purity and peptide content are determined by analytical RP-HPLC chromatography. Detection wavelength was 220 nm.

[2] = HPLC-assay for in-use stability after reconstitution with 4.2% sodium hydrogen carbonate solution (Example 3, peptides SEQ ID NO 11-23); format: physicochemical
Protocol: For clinical trials the above described formulation is dissolved in 700 μl sodium hydrogen carbonate (4.2%). To dissolve the lyophilisate, the vial and the diluent shall be shaken vigorously for 1 minute, check whether solution is clear, otherwise continue shaking for another minute until the solution is clear. Administration of 500 μL of the solution has to occur within 1 h after reconstitution. Dissolved lyophilisate may be stored aseptically at room temperature for up to 1 hour following reconstitution.
as §1

Sequence | stability of peptides in formulation, 1 M ([1]; +5° C. +/- 3° C.) | stability of peptides in formulation, 2 M ([1]; +5° C. +/- 3° C.) | stability of peptides in formulation, 3 M ([1]; +5° C. +/- 3° C.) | stability of peptides in formulation, INITIAL ([1]; +5° C. +/- 3° C.) [%] | stability of peptides in formulation, 1 M ([1]; +25° C. +/- 2° C.) | stability of peptides in formulation, 2 M ([1]; +25° C. +/- 2° C.) | stability of peptides in formulation, 3 M ([1]; +25° C. +/- 2° C.) | stability of peptides in formulation, INITIAL ([1]; +25° C. +/- 2° C.) [%] | stability of peptides in formulation, 1 M ([1]; -20° C. +/- 5° C.) | stability of peptides in formulation, 2 M ([1]; -20° C. +/- 5° C.) | stability of peptides in formulation, 3 M ([1]; -20° C. +/- 5° C.) | stability of peptides in formulation, INITIAL ([1]; -20° C. +/- 5° C.) [%] | in-use stability, Peptide [%] ([2]; +Mannitol/Lutrol, 2h) | in-use stability, Peptide [%] ([2]; +Mannitol/Lutrol, 4h) | in-use stability, Peptide [%] ([2]; +Mannitol/Lutrol, 6h) | in-use stability, Peptide [%] ([2]; +Mannitol/Lutrol, Initial) | in-use stability, Peptide [%] ([2]; no excipients, 2h) | in-use stability, Peptide [%] ([2]; no excipients, 4h) | in-use stability, Peptide [%] ([2]; no excipients, 6h) | in-use stability, Peptide [%] ([2]; no excipients, Initial)
ALWAWPSEL (listed as Homo sapiens) [BCA-002, Brevican tumour-associated peptide] | 99.13 % of Initial | 98.04 % of Initial | 98.73 % of Initial | 100.0 | 98.20 % of Initial | 97.05 % of Initial | 97.88 % of Initial | 100.0 | 99.17 % of Initial | 97.61 % of Initial | 98.61 % of Initial | 100.0 | 99.8 | 99.6 | 98.9 | 100.0 | 99.9 | 100.1 | 95.4 | 100.0
KIQEILTQV (listed as Homo sapiens) [IGF2BP3-001] | 99.00 % of Initial | 97.92 % of Initial | 98.57 % of Initial | 100.0 | 98.01 % of Initial | 96.77 % of Initial | 97.34 % of Initial | 100.0 | 99.10 % of Initial | 97.54 % of Initial | 98.42 % of Initial | 100.0 | 100.4 | 100.6 | 100.7 | 100.0 | 100.0 | 101.2 | 96.0 | 100.0
GLWHHQTEV (listed as Homo sapiens) [NRCAM-001, Neuronal cell adhesion molecule peptide] | 99.13 % of Initial | 98.17 % of Initial | 98.79 % of Initial | 100.0 | 97.90 % of Initial | 96.73 % of Initial | 97.59 % of Initial | 100.0 | 99.23 % of Initial | 97.86 % of Initial | 98.91 % of Initial | 100.0 | 99.9 | 100.0 | 99.5 | 100.0 | 99.8 | 100.2 | 95.6 | 100.0
KVFAGIPTV (listed as Homo sapiens) [PTP-005, Protein tyrosine phosphatase, receptor-type, Z polypeptide 1 peptide] | 98.93 % of Initial | 97.79 % of Initial | 98.67 % of Initial | 100.0 | 98.16 % of Initial | 97.10 % of Initial | 98.30 % of Initial | 100.0 | 98.99 % of Initial | 97.41 % of Initial | 98.34 % of Initial | 100.0 | 100.1 | 100.3 | 99.8 | 100.0 | 99.9 | 100.4 | 95.8 | 100.0
LTFGDVVAV (listed as Homo sapiens) [FABP7-001] | 99.08 % of Initial | 98.15 % of Initial | 98.66 % of Initial | 100.0 | 98.43 % of Initial | 97.71 % of Initial | 98.67 % of Initial | 100.0 | 99.09 % of Initial | 97.60 % of Initial | 98.39 % of Initial | 100.0 | 100.9 | 100.7 | 100.6 | 100.0 | 100.5 | 100.9 | 96.3 | 100.0
TMLARLASA (listed as Homo sapiens) [CSP-001, Chondroitin sulfate proteoglycan 4 peptide] | 98.99 % of Initial | 98.05 % of Initial | 99.81 % of Initial | 100.0 | 98.04 % of Initial | 96.99 % of Initial | 98.71 % of Initial | 100.0 | 98.99 % of Initial | 97.61 % of Initial | 99.61 % of Initial | 100.0 | 100.0 | 100.1 | 99.6 | 100.0 | 99.2 | 99.7 | 95.0 | 100.0
